Test results taken from article PMC10803776, “Structure of the M. tuberculosis DnaK−GrpE complex reveals how key DnaK roles are controlled” (Nature Communications, 2024).

Legend:
[1] = target: T1, Mycobacterium tuberculosis DnaK, full length, wild type (Mycobacterium tuberculosis, UniProt P9WMJ9 1-625); assay: ITC; as a1, with 2 mM ATP added to both the DnaK and the GrpE solution; details: both partners purified
T1 construct: DnaK (Hsp70 chaperone) of Mycobacterium tuberculosis, full length; also called Mtb DnaK; WT DnaK

SEC = target: the molecule itself; assay: SEC
[2] = target: T1, Mycobacterium tuberculosis DnaK, full …; assay: ITC; as a1, with 2 mM ADP added to both the DnaK and the GrpE solution; details: both partners purified

B1: Mycobacterium tuberculosis GrpE, full length, wild type (natural protein)
chain: MTDGNQKPDGNSGEQVTVTDKRRIDPETGEVRHVPPGDMPGGTAAADAAHTEDKVAELTADLQRVQADFANYRKRALRDQQAAADRAKASVVSQLLGVLDDLERARKHGDLESGPLKSVADKLDSALTGLGLVAFGAEGEDFDPVLHEAVQHEGDGGQGSKPVIGTVMRQGYQLGEQVLRHALVGVVDTVVVDAAELESVDDGTAVADTAENDQADQGNSADTSGEQAESEPSGS
notes: GrpE (nucleotide exchange factor) of Mycobacterium tuberculosis, full length; also called Mtb GrpE; WT GrpE
Kd [1]: 20.7 µM
stoichiometry N [1]: 0.07
stoichiometry N (SEC): 2
Kd [2]: 1.79 µM
stoichiometry N [2]: 0.69
